In article PMC11695723 one finds response and complex formation compared to WT data, which are given here for four substances.

Experiment [1] concerns the target Origin Recognition Complex (ORC). The experiment can be described thus: pre-RC assembly on DNA beads, silver-stained gel band quantification. The conditions noted are these: ATP, low salt wash; read off a plot.
For experiment [2], the target named is Origin Recognition Complex (ORC) (UniProt P54784). The experiment can be described thus: pull-down; pre-RC assay as a2 but with 3 mM ATP, WT Cdc6, low salt wash.

“MCM2-7 (wild type) mutant Mcm5:R721E; Mcm5:R735E [S. cerevisiae] / Origin Recognition Complex (ORC) [not stated] chain 4 R721E, chain 4 R735E”: the response in experiment [1] was found to be 0.28.

On to “MCM2-7 (wild type) mutant Mcm5:E710R; Mcm5:E717R; Mcm5:E736R [S. cerevisiae] / Origin Recognition Complex (ORC) [not stated] chain 4 E710R, chain 4 E717R, chain 4 E736R”, for which the response in experiment [1] came out at 0.5.

“MCM2-7-ΔC2, P29469 1-847; P24279 1-971; P30665 1-933; P29496 1-775; P53091 1-1017; P38132 1-845”: the complex formation compared to WT in experiment [2] is 65%.

As for “MCM2-7 (wild type) mutant Mcm5:K757D; Mcm5:R764E; Mcm5:R772E [S. cerevisiae] / Origin Recognition Complex (ORC) [not stated] chain 4 K757D, chain 4 R764E, chain 4 R772E”, the response in experiment [1] came out at 0.25.
